Publication PMC8002523

Legend:
immunoglobulin G (IgG) = experiment: electrochemical displacement from graphene oxide (SWV); conditions: Binding buffer, pH and temperature not given in the material; aptamer stock 2.0 uM in sterile deionized water; ferricyanide redox probe; fluorescence ex 480 / …
hemoglobin (Hb) = experiment: as above; conditions: Binding buffer, pH and temperature not given in the material; aptamer stock 2.0 uM in sterile deionized water; ferricyanide redox probe; fluorescence ex 480 / …

Sequence: TGCGGTTCGTGCGGTTGTAGTAC [Modified G8-FAM]
- binding signal (% current response) (immunoglobulin G (IgG)): 29.5
- binding signal (% current response) (hemoglobin (Hb)): 11.7
